# Paper PMC4022514, “The C-Terminal Domain from S. cerevisiae Pat1 Displays Two Conserved Regions Involved in Decapping Factor Recruitment” (PLoS ONE, 2014)
# T1: Edc3 (two-hybrid fusion to the DNA binding domain) (S. cerevisiae, UniProt P39998 1-551)
# T1 construct: Edc3, S. cerevisiae; The bridge between Pat1 and Rps28 in the wild-type host strain is the strain's endogenous Edc3, the same protein without the fusion; source: yeast two-hybrid fusion
# T1 sequence (looked up): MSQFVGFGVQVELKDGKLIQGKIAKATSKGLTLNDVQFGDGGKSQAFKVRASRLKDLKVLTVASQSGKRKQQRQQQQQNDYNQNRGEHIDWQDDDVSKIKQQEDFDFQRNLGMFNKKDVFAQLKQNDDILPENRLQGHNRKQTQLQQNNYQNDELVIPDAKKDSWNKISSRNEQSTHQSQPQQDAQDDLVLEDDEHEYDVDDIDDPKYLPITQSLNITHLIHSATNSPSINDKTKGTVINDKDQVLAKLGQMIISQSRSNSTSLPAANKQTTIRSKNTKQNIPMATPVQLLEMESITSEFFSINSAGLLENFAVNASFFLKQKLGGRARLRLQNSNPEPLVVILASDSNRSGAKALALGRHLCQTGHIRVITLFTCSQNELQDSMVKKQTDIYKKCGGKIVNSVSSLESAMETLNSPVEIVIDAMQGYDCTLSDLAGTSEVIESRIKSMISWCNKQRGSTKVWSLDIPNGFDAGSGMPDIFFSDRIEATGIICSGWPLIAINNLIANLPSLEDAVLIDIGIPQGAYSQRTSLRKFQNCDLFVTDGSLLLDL
# T2: Scd6 (two-hybrid fusion) (S. cerevisiae, UniProt P45978 1-349)
# T2 construct: Scd6, S. cerevisiae; source: yeast two-hybrid fusion
# T2 sequence (looked up): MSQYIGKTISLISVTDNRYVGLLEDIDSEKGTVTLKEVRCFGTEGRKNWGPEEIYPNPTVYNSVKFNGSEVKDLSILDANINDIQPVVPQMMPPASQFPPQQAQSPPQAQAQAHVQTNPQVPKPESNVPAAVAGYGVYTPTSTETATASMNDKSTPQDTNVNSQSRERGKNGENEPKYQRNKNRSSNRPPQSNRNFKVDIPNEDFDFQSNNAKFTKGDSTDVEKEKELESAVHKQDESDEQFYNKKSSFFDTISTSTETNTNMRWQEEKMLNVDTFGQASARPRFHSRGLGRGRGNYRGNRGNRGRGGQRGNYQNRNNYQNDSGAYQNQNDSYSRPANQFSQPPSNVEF
# Key:
# [1] = target: T1, Edc3 (two-hybrid fusion to the DNA …); assay: two-hybrid; yeast strain BSY2475, isogenic to MAV203 but lacking Edc3 (Δedc3); β-galactosidase activity by Beta-Glo; Pat1 fused to Gal4AD; conditions: partners not purified
# Scd6 (two-hybrid fusion) = target: T2, Scd6 (two-hybrid fusion); assay: as above; conditions: partners not purified
binder,measurement,setting,value
"full-length ScPat1 (two-hybrid fusion to Gal4AD) (natural protein, S. cerevisiae, UniProt P25644 1-796, looked up, Pat1, S. cerevisiae, full-length; pBS2374 is named only as the template for the Gal4AD-Pat1ΔC68 plasmid pBS4907; also called wild type ScPat1; full-length Pat1 protein; source: yeast two-hybrid fusion) MSFFGLENSGNARDGPLDFEESYKGYGEHELEENDYLNDETFGDNVQVGTDFDFGNPHSSGSSGNAIGGNGVGATARSYVAATAEGISGPRTDGTAAAGPLDLKPMESLWSTAPPPAMAPSPQSTMAPAPAPQQMAPLQPILSMQDLERQQRQMQQQFMNFHAMGHPQGLPQGPPQQQFPMQPASGQPGPSQFAPPPPPPGVNVNMNQMPMGPVQVPVQASPSPIGMSNTPSPGPVVGATKMPLQSGRRSKRDLSPEEQRRLQIRHAKVEKILKYSGLMTPRDKDFITRYQLSQIVTEDPYNEDFYFQVYKIIQRGGITSESNKGLIARAYLEHSGHRLGGRYKRTDIALQRMQSQVEKAVTVAKERPSKLKDQQAAAGNSSQDNKQANTVLGKISSTLNSKNPRRQLQIPRQQPSDPDALKDVTDSLTNVDLASSGSSSTGSSAAAVASKQRRRSSYAFNNGNGATNLNKSGGKKFILELIETVYEEILDLEANLRNGQQTDSTAMWEALHIDDSSYDVNPFISMLSFDKGIKIMPRIFNFLDKQQKLKILQKIFNELSHLQIIILSSYKTTPKPTLTQLKKVDLFQMIILKIIVSFLSNNSNFIEIMGLLLQLIRNNNVSFLTTSKIGLNLITILISRAALIKQDSSRSNILSSPEISTWNEIYDKLFTSLESKIQLIFPPREYNDHIMRLQNDKFMDEAYIWQFLASLALSGKLNHQRIIIDEVRDEIFATINEAETLQKKEKELSVLPQRSQELDTELKSIIYNKEKLYQDLNLFLNVMGLVYRDGEISELK","fold two-hybrid signal, Δedc3 strain over wild type strain",[1],> 60 fold
same,"fold two-hybrid signal, Δedc3 strain over wild type strain",Scd6 (two-hybrid fusion),3 fold
